In IntAct's records for PubMed 31515488:

B1: Transcription factor 12 (Homo sapiens), Q99081 (parent)
chain: MNPQQQRMAAIGTDKELSDLLDFSAMFSPPVNSGKTRPTTLGSSQFSGSGIDERGGTTSWGTSGQPSPSYDSSRGFTDSPHYSDHLNDSRLGAHEGLSPTPFMNSNLMGKTSERGSFSLYSRDTGLPGCQSSLLRQDLGLGSPAQLSSSGKPGTAYYSFSATSSRRRPLHDSAALDPLQAKKVRKVPPGLPSSVYAPSPNSDDFNRESPSYPSPKPPTSMFASTFFMQDGTHNSSDLWSSSNGMSQPGFGGILGTSTSHMSQSSSYGNLHSHDRLSYPPHSVSPTDINTSLPPMSSFHRGSTSSSPYVAASHTPPINGSDSILGTRGNAAGSSQTGDALGKALASIYSPDHTSSSFPSNPSTPVGSPSPLTGTSQWPRPGGQAPSSPSYENSLHSLQSRMEDRLDRLDDAIHVLRNHAVGPSTSLPAGHSDIHSLLGPSHNAPIGSLNSNYGGSSLVASSRSASMVGTHREDSVSLNGNHSVLSSTVTTSSTDLNHKTQENYRGGLQSQSGTVVTTEIKTENKEKDENLHEPPSSDDMKSDDESSQKDIKVSSRGRTSSTNEDEDLNPEQKIEREKERRMANNARERLRVRDINEAFKELGRMCQLHLKSEKPQTKLLILHQAVAVILSLEQQVRERNLNPKAACLKRREEEKVSAVSAEPPTTLPGTHPGLSETTNPMGHM
B2: Proteasome subunit beta type-1 (Homo sapiens), P20618 (parent)
chain: MLSSTAMYSAPGRDLGMEPHRAAGPLQLRFSPYVFNGGTILAIAGEDFAIVASDTRLSEGFSIHTRDSPKCYKLTDKTVIGCSGFHGDCLTLTKIIEARLKMYKHSNNKAMTTGAIAAMLSTILYSRRFFPYYVYNIIGGLDEEGKGAVYSFDPVGSYQRDSFKAGGSASAMLQPLLDNQVGFKNMQNVEHVPLSLDRAMRLVKDVFISAAERDVYTGDALRICIVTKEGIREETVSLRKD
partner: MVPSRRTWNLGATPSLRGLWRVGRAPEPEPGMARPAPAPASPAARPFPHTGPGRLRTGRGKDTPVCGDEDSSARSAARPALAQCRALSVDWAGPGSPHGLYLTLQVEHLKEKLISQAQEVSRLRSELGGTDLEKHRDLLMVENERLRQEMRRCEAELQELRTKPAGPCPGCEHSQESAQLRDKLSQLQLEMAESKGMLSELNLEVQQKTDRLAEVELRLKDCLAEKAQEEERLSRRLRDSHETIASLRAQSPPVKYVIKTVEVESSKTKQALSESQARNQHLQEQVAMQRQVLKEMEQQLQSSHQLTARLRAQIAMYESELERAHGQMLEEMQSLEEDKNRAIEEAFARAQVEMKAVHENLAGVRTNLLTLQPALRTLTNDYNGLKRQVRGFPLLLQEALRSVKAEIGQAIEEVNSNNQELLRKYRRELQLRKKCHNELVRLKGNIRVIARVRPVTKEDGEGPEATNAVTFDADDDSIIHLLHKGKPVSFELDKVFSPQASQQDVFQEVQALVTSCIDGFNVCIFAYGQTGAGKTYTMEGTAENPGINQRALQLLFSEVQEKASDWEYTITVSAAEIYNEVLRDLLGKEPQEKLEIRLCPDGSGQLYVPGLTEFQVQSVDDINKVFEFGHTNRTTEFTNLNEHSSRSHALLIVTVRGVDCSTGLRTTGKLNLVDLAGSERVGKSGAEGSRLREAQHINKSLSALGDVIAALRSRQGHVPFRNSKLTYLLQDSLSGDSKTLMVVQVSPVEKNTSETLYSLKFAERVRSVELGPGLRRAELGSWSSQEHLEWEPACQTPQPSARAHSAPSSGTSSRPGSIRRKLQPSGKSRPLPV
B3: Transcription factor 12 (Homo sapiens), Q99081-3 (parent)
chain: MNPQQQRMAAIGTDKELSDLLDFSAMFSPPVNSGKTRPTTLGSSQFSGSGIDERGGTTSWGTSGQPSPSYDSSRGFTDSPHYSDHLNDSRLGAHEGLSPTPFMNSNLMGKTSERGSFSLYSRDTGLPGCQSSLLRQDLGLGSPAQLSSSGKPGTAYYSFSATSSRRRPLHDSAALDPLQAKKVRKVPPGLPSSVYAPSPNSDDFNRESPSYPSPKPPTSMFASTFFMQDGTHNSSDLWSSSNGMSQPGFGGILGTSTSHMSQSSSYGNLHSHDRLSYPPHSVSPTDINTSLPPMSSFHRGSTSSSPYVAASHTPPINGSDSILGTRGNAAGSSQTGDALGKALASIYSPDHTSSSFPSNPSTPVGSPSPLTGTSQWPRPGGQAPSSPSYENSLHSLKNRVEQQLHEHLQDAMSFLKDVCEQSRMEDRLDRLDDAIHVLRNHAVGPSTSLPAGHSDIHSLLGPSHNAPIGSLNSNYGGSSLVASSRSASMVGTHREDSVSLNGNHSVLSSTVTTSSTDLNHKTQENYRGGLQSQSGTVVTTEIKTENKEKDENLHEPPSSDDMKSDDESSQKDIKVSSRGRTSSTNEDEDLNPEQKIEREKERRMANNARERLRVRDINEAFKELGRMCQLHLKSEKPQTKLLILHQAVAVILSLEQQVRERNLNPKAACLKRREEEKVSAVSAEPPTTLPGTHPGLSETTNPMGHM
partner: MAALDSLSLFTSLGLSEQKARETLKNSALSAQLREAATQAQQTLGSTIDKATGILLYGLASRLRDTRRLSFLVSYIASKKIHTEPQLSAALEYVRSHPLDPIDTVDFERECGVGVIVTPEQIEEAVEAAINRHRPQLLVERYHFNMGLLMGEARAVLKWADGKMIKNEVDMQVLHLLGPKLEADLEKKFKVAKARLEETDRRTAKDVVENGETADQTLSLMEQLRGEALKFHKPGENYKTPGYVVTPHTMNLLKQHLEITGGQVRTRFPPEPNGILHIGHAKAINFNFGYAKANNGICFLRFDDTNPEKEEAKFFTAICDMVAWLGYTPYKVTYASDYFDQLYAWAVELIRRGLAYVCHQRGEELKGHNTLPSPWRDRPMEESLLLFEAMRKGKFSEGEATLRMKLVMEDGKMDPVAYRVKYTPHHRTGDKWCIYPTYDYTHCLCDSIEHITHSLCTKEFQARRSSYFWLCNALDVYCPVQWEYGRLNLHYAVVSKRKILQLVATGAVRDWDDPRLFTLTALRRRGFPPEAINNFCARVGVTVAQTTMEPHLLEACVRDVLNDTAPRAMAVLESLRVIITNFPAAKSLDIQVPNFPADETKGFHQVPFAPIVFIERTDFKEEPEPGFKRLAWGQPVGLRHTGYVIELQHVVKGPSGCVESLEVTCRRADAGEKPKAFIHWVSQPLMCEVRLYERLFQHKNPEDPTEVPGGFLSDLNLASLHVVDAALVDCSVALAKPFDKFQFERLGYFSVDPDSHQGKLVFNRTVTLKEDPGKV
B4: Serine/threonine-protein phosphatase 2A activator (Homo sapiens), Q15257 (parent)
chain: MAEGERQPPPDSSEEAPPATQNFIIPKKEIHTVPDMGKWKRSQAYADYIGFILTLNEGVKGKKLTFEYRVSEMWNEVHEEKEQAAKQSVSCDECIPLPRAGHCAPSEAIEKLVALLNTLDRWIDETPPVDQPSRFGNKAYRTWYAKLDEEAENLVATVVPTHLAAAVPEVAVYLKESVGNSTRIDYGTGHEAAFAAFLCCLCKIGVLRVDDQIAIVFKVFNRYLEVMRKLQKTYRMEPAGSQGVWGLDDFQFLPFIWGSSQLIDHPYLEPRHFVDEKAVNENHKDYMFLECILFITEMKTGPFAEHSNQLWNISAVPSWSKVNQGLIRMYKAECLEKFPVIQHFKFGSLLPIHPVTSG
B5: Caspase-9 (Homo sapiens), P55211 (parent)
chain: MDEADRRLLRRCRLRLVEELQVDQLWDALLSRELFRPHMIEDIQRAGSGSRRDQARQLIIDLETRGSQALPLFISCLEDTGQDMLASFLRTNRQAAKLSKPTLENLTPVVLRPEIRKPEVLRPETPRPVDIGSGGFGDVGALESLRGNADLAYILSMEPCGHCLIINNVNFCRESGLRTRTGSNIDCEKLRRRFSSLHFMVEVKGDLTAKKMVLALLELAQQDHGALDCCVVVILSHGCQASHLQFPGAVYGTDGCPVSVEKIVNIFNGTSCPSLGGKPKLFFIQACGGEQKDHGFEVASTSPEDESPGSNPEPDATPFQEGLRTFDQLDAISSLPTPSDIFVSYSTFPGFVSWRDPKSGSWYVETLDDIFEQWAHSEDLQSLLLRVANAVSVKGIYKQMPGCFNFLRKKLFFKTS
B6: Paraneoplastic antigen Ma2 (Homo sapiens), Q9UL42 (parent)
chain: MALALLEDWCRIMSVDEQKSLMVTGIPADFEEAEIQEVLQETLKSLGRYRLLGKIFRKQENANAVLLELLEDTDVSAIPSEVQGKGGVWKVIFKTPNQDTEFLERLNLFLEKEGQTVSGMFRALGQEGVSPATVPCISPELLAHLLGQAMAHAPQPLLPMRYRKLRVFSGSAVPAPEEESFEVWLEQATEIVKEWPVTEAEKKRWLAESLRGPALDLMHIVQADNPSISVEECLEAFKQVFGSLESRRTAQVRYLKTYQEEGEKVSAYVLRLETLLRRAVEKRAIPRRIADQVRLEQVMAGATLNQMLWCRLRELKDQGPPPSFLELMKVIREEEEEEASFENESIEEPEERDGYGRWNHEGDD
partner: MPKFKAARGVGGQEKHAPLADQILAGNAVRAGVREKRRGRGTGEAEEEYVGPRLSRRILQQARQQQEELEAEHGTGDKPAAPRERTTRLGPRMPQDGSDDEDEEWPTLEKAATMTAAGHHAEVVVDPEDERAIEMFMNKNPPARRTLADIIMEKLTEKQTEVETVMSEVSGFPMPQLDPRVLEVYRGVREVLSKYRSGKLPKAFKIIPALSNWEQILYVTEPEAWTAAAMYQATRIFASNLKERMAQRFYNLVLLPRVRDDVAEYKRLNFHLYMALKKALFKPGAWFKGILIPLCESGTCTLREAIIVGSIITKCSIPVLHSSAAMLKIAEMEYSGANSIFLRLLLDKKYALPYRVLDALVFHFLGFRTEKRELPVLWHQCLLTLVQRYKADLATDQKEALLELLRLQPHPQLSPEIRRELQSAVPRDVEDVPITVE
B7: Fas-activated serine/threonine kinase (Homo sapiens), Q14296-1 (parent)
chain: MRRPRGEPGPRAPRPTEGATCAGPGESWSPSPNSMLRVLLSAQTSPARLSGLLLIPPVQPCCLGPSKWGDRPVGGGPSAGPVQGLQRLLEQAKSPGELLRWLGQNPSKVRAHHYSVALRRLGQLLGSRPRPPPVEQVTLQDLSQLIIRNCPSFDIHTIHVCLHLAVLLGFPSDGPLVCALEQERRLRLPPKPPPPLQPLLRGGQGLEAALSCPRFLRYPRQHLISSLAEARPEELTPHVMVLLAQHLARHRLREPQLLEAIAHFLVVQETQLSSKVVQKLVLPFGRLNYLPLEQQFMPCLERILAREAGVAPLATVNILMSLCQLRCLPFRALHFVFSPGFINYISGTPHALIVRRYLSLLDTAVELELPGYRGPRLPRRQQVPIFPQPLITDRARCKYSHKDIVAEGLRQLLGEEKYRQDLTVPPGYCTDFLLCASSSGAVLPVRTQDPFLPYPPRSCPQGQAASSATTRDPAQRVVLVLRERWHFCRDGRVLLGSRALRERHLGLMGYQLLPLPFEELESQRGLPQLKSYLRQKLQALGLRWGPEGG
partner: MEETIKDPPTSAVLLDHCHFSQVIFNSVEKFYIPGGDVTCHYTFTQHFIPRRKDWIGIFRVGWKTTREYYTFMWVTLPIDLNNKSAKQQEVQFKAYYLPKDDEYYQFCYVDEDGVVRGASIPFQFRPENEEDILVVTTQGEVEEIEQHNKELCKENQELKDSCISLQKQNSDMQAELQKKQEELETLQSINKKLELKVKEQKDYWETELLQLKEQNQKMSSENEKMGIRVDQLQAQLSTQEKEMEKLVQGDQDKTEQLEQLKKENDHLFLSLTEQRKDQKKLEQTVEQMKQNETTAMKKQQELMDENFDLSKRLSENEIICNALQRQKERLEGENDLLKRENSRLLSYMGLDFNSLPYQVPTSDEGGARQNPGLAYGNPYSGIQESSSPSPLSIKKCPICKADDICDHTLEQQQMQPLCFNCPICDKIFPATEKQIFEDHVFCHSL

Variants of: B1
Conditions: with psa1_human PSMA1, P25786
psa1_human PSMA1, P25786, sequence (P25786 whole entry): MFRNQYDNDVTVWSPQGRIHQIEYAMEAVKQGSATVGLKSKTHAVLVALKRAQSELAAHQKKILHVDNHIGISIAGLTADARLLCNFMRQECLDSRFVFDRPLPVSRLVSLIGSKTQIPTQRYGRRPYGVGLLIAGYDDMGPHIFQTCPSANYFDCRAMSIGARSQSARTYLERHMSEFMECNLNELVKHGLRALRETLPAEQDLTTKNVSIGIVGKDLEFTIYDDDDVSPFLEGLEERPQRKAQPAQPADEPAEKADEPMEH

| Variant | effect of a mutation on the interaction |
| --- | --- |
| A458V | with no effect |
| N479S | with no effect |

Variants of: B1
Conditions: with cdn2c_human CDKN2C

| Variant | effect of a mutation on the interaction |
| --- | --- |
| A458V | with no effect |
| N479S | with no effect |

Variants of: B2
Conditions: with kifc3_human KIFC3, Q9BVG8

| Variant | effect of a mutation on the interaction |
| --- | --- |
| P11A | with no effect |

Variants of: B3
Conditions: with syq_human QARS1, P47897

| Variant | effect of a mutation on the interaction |
| --- | --- |
| A155T | with no effect |
| A482V | with no effect |
| N606H | with no effect |
| S446F | with no effect |
| R74G | with no effect |
| Y120C | with no effect |

Variants of: B4
Conditions: with amot_human AMOT

| Variant | effect of a mutation on the interaction |
| --- | --- |
| K218T | with no effect |

Variants of: B5
Conditions: with birc2_human BIRC2, Q13490
birc2_human BIRC2, Q13490, sequence (Q13490 whole entry): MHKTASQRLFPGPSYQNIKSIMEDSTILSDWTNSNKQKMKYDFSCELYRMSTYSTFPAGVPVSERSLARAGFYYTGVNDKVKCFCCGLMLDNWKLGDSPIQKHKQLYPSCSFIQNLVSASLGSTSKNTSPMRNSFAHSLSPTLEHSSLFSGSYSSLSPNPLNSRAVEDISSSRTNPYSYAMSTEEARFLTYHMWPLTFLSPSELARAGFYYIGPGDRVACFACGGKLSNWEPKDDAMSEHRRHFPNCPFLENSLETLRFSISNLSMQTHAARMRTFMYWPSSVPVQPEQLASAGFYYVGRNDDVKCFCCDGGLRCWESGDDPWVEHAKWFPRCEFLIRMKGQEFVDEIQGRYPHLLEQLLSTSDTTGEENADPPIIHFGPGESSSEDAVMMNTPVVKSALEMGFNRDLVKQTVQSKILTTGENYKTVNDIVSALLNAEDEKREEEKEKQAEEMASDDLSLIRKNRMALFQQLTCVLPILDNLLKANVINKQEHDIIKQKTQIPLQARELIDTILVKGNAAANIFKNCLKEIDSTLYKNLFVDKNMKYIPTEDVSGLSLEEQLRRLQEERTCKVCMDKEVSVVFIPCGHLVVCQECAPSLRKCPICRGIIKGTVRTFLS

| Variant | effect of a mutation on the interaction |
| --- | --- |
| R173H | with no effect |
| T366N | disrupting interaction strength |
| P336S | with no effect |
| R178C | disrupting interaction strength |
| H237P | disrupting interaction strength |
| Q221R | with no effect |

Variants of: B5
Conditions: with xiap_human XIAP

| Variant | effect of a mutation on the interaction |
| --- | --- |
| P336S | with no effect |
| Q221R | with no effect |

Variants of: B6
Conditions: with byst_human BYSL

| Variant | effect of a mutation on the interaction |
| --- | --- |
| E186K | with no effect |

Variants of: B7
Conditions: with caco2_human CALCOCO2, Q13137

| Variant | effect of a mutation on the interaction |
| --- | --- |
| V424L | with no effect |
